Here are results for three molecules from patent publication US20140087995A1 (published 2014).

Numbered stars: 1 amine (or outer) side, 2 acyl side, 3 side chain; on linkers, the order of the positions; unused ones are H or OH. Bridge positions count the residues as written; N and C are the ends. Side chains are listed from the residue outwards. Ends that are not written are not given here. * marks the point of attachment. C20 diacid = O=C(O)CCCCCCCCCCCCCCCCCCC(=O)*; γGlu = O=C(O)[C@H](CCC(=O)[*:2])N[*:1]; AEEA = NCCOCCOCC(=O)O

This assay addresses T1, human amylin receptor (human, UniProt P30988 25-474; O60896 24-148, limits assumed).
T1 construct: whole, on cells; Used as cell membranes prepared from the Amylin 3(a)/CRE-luc BHK cells (Assay V); also called hAmylin-R; hAmylinR
T1 sequence (looked up) 1: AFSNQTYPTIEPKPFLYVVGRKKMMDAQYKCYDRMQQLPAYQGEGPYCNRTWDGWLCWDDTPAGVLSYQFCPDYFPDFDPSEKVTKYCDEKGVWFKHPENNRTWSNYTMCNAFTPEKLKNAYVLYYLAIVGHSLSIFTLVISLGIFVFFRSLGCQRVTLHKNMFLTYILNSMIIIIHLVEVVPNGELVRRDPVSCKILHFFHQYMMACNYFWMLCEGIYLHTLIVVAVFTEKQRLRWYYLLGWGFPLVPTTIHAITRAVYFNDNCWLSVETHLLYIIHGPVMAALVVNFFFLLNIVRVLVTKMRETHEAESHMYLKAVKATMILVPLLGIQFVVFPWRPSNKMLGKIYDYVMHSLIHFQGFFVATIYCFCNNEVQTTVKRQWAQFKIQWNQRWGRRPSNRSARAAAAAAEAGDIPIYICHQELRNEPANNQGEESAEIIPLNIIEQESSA
T1 sequence (looked up) 2: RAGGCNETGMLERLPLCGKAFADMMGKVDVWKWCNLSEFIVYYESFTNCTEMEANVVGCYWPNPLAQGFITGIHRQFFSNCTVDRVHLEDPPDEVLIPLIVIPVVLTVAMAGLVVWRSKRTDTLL
Nature of the assay: SPA competition vs 125I-rat amylin, membranes of amylin 3(a) receptor BHK cells (Assay V). The essentials:
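One-site competition analysis of SPA counts yielded IC₅₀ as a measure of affinity. Membranes were at 35 ng/μL final; incubation was 120 min at 25° C, pH 7.4.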

B1: N^-1-[(4S)-4-carboxy-4-(19-carboxynonadecanoylamino)butanoyl]-Gly[Arg1,Ala14,Arg17,Pro21,Pro27,His34]-h-amylin (peptide)
peptide: {C20 diacid-γGlu}-GRCNTATCATQRLAAFLRHSSPNFGAIPSSTNVGHNTY-NH2
modifications: disulfide 3-8
SMILES: CC[C@H](C)[C@H](NC(=O)[C@H](C)NC(=O)CNC(=O)[C@H](Cc1ccccc1)NC(=O)[C@H](CC(N)=O)NC(=O)[C@@H]1CCCN1C(=O)[C@H](CO)NC(=O)[C@H](CO)NC(=O)[C@H](Cc1c[nH]cn1)NC(=O)[C@H](CCCNC(=N)N)NC(=O)[C@H](CC(C)C)NC(=O)[C@H](Cc1ccccc1)NC(=O)[C@H](C)NC(=O)[C@H](C)NC(=O)[C@H](CC(C)C)NC(=O)[C@H](CCCNC(=N)N)NC(=O)[C@H](CCC(N)=O)NC(=O)[C@@H](NC(=O)[C@H](C)NC(=O)[C@@H]1CSSC[C@H](NC(=O)[C@H](CCCNC(=N)N)NC(=O)CNC(=O)CC[C@H](NC(=O)CCCCCCCCCCCCCCCCCCC(=O)O)C(=O)O)C(=O)N[C@@H](CC(N)=O)C(=O)N[C@@H]([C@@H](C)O)C(=O)N[C@@H](C)C(=O)N[C@@H]([C@@H](C)O)C(=O)N1)[C@@H](C)O)C(=O)N1CCC[C@H]1C(=O)N[C@@H](CO)C(=O)N[C@@H](CO)C(=O)N[C@H](C(=O)N[C@@H](CC(N)=O)C(=O)N[C@H](C(=O)NCC(=O)N[C@@H](Cc1c[nH]cn1)C(=O)N[C@@H](CC(N)=O)C(=O)N[C@H](C(=O)N[C@@H](Cc1ccc(O)cc1)C(N)=O)[C@@H](C)O)C(C)C)[C@@H](C)O
By IC50 is commonly meant the concentration at which inhibition is half-maximal. In turn, B1 returned an IC50 of 0.426 nM.

B2: N^ε-[2-[2-[2-[[(4S)-4-carboxy-4-(19-carboxynonadecanoylamino)butanoyl]amino]ethoxy]ethoxy]acetyl]Lys[Arg1,Arg17,Pro21,Pro27,His35]-h-amylin (peptide)
peptide: K([AEEA-γGlu-C20 diacid])RCNTATCATQRLANFLRHSSPNFGAIPSSTNVGSHTY-NH2
modifications: disulfide 3-8; N-terminus assumed
SMILES: CC[C@H](C)[C@H](NC(=O)[C@H](C)NC(=O)CNC(=O)[C@H](Cc1ccccc1)NC(=O)[C@H](CC(N)=O)NC(=O)[C@@H]1CCCN1C(=O)[C@H](CO)NC(=O)[C@H](CO)NC(=O)[C@H](Cc1c[nH]cn1)NC(=O)[C@H](CCCNC(=N)N)NC(=O)[C@H](CC(C)C)NC(=O)[C@H](Cc1ccccc1)NC(=O)[C@H](CC(N)=O)NC(=O)[C@H](C)NC(=O)[C@H](CC(C)C)NC(=O)[C@H](CCCNC(=N)N)NC(=O)[C@H](CCC(N)=O)NC(=O)[C@@H](NC(=O)[C@H](C)NC(=O)[C@@H]1CSSC[C@H](NC(=O)[C@H](CCCNC(=N)N)NC(=O)[C@@H](N)CCCCNC(=O)COCCOCCNC(=O)CC[C@H](NC(=O)CCCCCCCCCCCCCCCCCCC(=O)O)C(=O)O)C(=O)N[C@@H](CC(N)=O)C(=O)N[C@@H]([C@@H](C)O)C(=O)N[C@@H](C)C(=O)N[C@@H]([C@@H](C)O)C(=O)N1)[C@@H](C)O)C(=O)N1CCC[C@H]1C(=O)N[C@@H](CO)C(=O)N[C@@H](CO)C(=O)N[C@H](C(=O)N[C@@H](CC(N)=O)C(=O)N[C@H](C(=O)NCC(=O)N[C@@H](CO)C(=O)N[C@@H](Cc1c[nH]cn1)C(=O)N[C@H](C(=O)N[C@@H](Cc1ccc(O)cc1)C(N)=O)[C@@H](C)O)C(C)C)[C@@H](C)O
notes: also called compound 45
As to B2, the IC50 turned out to be 0.552 nM.

B3: N^-1-[(4S)-4-carboxy-4-(19-carboxynonadecanoylamino)butanoyl]-Gly[Arg1,His14,Arg17,Pro21,Pro27,Pro34]-h-amylin (peptide)
peptide: {C20 diacid-γGlu}-GRCNTATCATQRLAHFLRHSSPNFGAIPSSTNVGPNTY-NH2
modifications: disulfide 3-8
SMILES: CC[C@H](C)[C@H](NC(=O)[C@H](C)NC(=O)CNC(=O)[C@H](Cc1ccccc1)NC(=O)[C@H](CC(N)=O)NC(=O)[C@@H]1CCCN1C(=O)[C@H](CO)NC(=O)[C@H](CO)NC(=O)[C@H](Cc1c[nH]cn1)NC(=O)[C@H](CCCNC(=N)N)NC(=O)[C@H](CC(C)C)NC(=O)[C@H](Cc1ccccc1)NC(=O)[C@H](Cc1c[nH]cn1)NC(=O)[C@H](C)NC(=O)[C@H](CC(C)C)NC(=O)[C@H](CCCNC(=N)N)NC(=O)[C@H](CCC(N)=O)NC(=O)[C@@H](NC(=O)[C@H](C)NC(=O)[C@@H]1CSSC[C@H](NC(=O)[C@H](CCCNC(=N)N)NC(=O)CNC(=O)CC[C@H](NC(=O)CCCCCCCCCCCCCCCCCCC(=O)O)C(=O)O)C(=O)N[C@@H](CC(N)=O)C(=O)N[C@@H]([C@@H](C)O)C(=O)N[C@@H](C)C(=O)N[C@@H]([C@@H](C)O)C(=O)N1)[C@@H](C)O)C(=O)N1CCC[C@H]1C(=O)N[C@@H](CO)C(=O)N[C@@H](CO)C(=O)N[C@H](C(=O)N[C@@H](CC(N)=O)C(=O)N[C@H](C(=O)NCC(=O)N1CCC[C@H]1C(=O)N[C@@H](CC(N)=O)C(=O)N[C@H](C(=O)N[C@@H](Cc1ccc(O)cc1)C(N)=O)[C@@H](C)O)C(C)C)[C@@H](C)O
The molecule B3 yielded an IC50 of 0.217 nM.
